Source: US9045527 (WILLIAM MARSH RICE UNIVERSITY, dated 2015)
Each block holds one binder with its values, some of them ahead of it. Where no end group is shown, it is not given here.

Legend:
[1] = target: T1, CAL PDZ domain (CALP), wild type (UniProt Q9HD26 278-362); experiment: fluorescence anisotropy displacement of a fluorescent reporter peptide; apparent Ki, not significantly different from Rh2(OAc)4
Description: (§1) Protein binding studies: Fluorescence anisotropy inhibition binding assays were performed using standard procedures. […] Following equilibration, fluorescence anisotropy values were determined using a Tecan Infinite M1000 plate reader (n=3). Inhibitor equilibrium dissociation (Ki) constants were estimated as described. DMSO and rhodium(II) acetate were used as negative controls for unlabeled and labeled peptides, respectively.

[2] = target: T2, K3a,eRh2 metallopeptide (chain 1 pos 9 (heptad a) and pos 13 (heptad e): Glu side-chain carboxylates bridged by one dirhodium(II) centre, written E. N-terminal acetyl per paragraph 78. C-terminal form not stated.); experiment: thermal denaturation of an equimolar mixture, CD
T2 peptide: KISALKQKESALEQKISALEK

[3] = target: T1, CAL PDZ domain (CALP), wild type; experiment: fluorescence anisotropy displacement of a fluorescent reporter peptide
Description: as §1

[4] = target: CALP-H301A mutant (UniProt Q9HD26 278-362); experiment: as above
Description: as §1

Ki [1]: 6.3 µM
Binder: Ac-VQD(dirhodium)TRL-OH (also: dirhodium metal complex at Asp side-chain carboxylate) [VQD^RhTRL metallopeptide]

binding result [2]: binds
Binder: Ac-EISALEKCISALEQEISALEK [E3gC peptide]

Ki [3]: 0.56 µM
Ki [4]: 9.2 µM
Binder: Ac-E(dirhodium)VQSTRL-OH (also: dirhodium metal complex at Glu side-chain carboxylate) [E^RhVQSTRL metallopeptide]

Ki [3]: 1.7 µM
Binder: Ac-E(dirhodium)WPTSII-OH (also: dirhodium metal complex at Glu side chain) [E^RhWPTSII metallopeptide]
